We go through two molecules from patent US20210238279A1 (Johns Hopkins, published 2021).

Experiment [1] has as its target T1, human ZnT8 over-expressed in HEK293 cells (human, UniProt Q8IWU4 1-369).
T1 construct: whole, on cells; Cells were fixed and permeabilized for immunofluorescence and flow cytometry (intracellular staining); The same id is used for the detergent lysates of over-expressing cells in the HTRF assay; also called ZnT8(+) HEK293 cells; HEK293 cells stably expressing human ZnT8
T1 sequence (looked up): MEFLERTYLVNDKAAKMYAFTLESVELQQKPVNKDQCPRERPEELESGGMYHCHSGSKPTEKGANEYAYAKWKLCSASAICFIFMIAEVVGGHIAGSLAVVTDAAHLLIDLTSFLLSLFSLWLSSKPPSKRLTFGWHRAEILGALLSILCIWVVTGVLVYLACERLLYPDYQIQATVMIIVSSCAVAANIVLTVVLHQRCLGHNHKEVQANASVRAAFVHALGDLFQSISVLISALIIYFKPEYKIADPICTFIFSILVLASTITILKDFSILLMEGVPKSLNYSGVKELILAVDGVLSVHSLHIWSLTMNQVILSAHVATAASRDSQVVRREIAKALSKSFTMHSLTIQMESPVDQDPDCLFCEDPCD
Description: flow cytometry of fixed and permeabilized HEK293 cells, mean fluorescence against antibody concentration. An excerpt: FIG. 6A-6C. mAb binding affinity. (FIG. 6A) Representative confocal microscopy images of immunofluorescence staining of fixed and saponin-permeabilized HEK293 cells with mAb20 or mAb39 staining as indicated. ZnT8(+) or ZnT8(−) denotes HEK293 cells w/o ZnT8 over-expression. Red: mAb20 or mAb39 staining, blue: DAPI, scale bar: 5 um. (FIG. 6B) Histograms of flow cytometry counting events. Arrows indicate leftward shifts of the histogram as a result of mAb serial dilutions. (FIG. 6C) mAb binding to HEK293 cells w/o ZnT8 overexpression as indicated. Immunofluorescence intensities of mAb20 or mAb39 labeling in serial dilutions were obtained from (FIG. 6B). Solid lines are least-squares fits of the binding data to a one-component binding process.
Flow cytometry analysis. HEK293 cells w/o ZnT8 over-expression were fixed, permeabilized, and resuspended in PBS plus 5% BSA at a density of 1×10⁶/ml as described previously (43). Aliquots of 100 μl cell suspension were stained with mAb20 or mAb39 in 3-fold serial dilutions for 2 hours at RT, and then stained with Alexa fluor 647-conjugated donkey-anti-mouse secondary antibody in 1:1000 dilution with 5% BSA (Thermo Fisher Scientific, cat. #A31571). The labeled cells were analyzed immediately by flow cytometry. […]
Binding affinity. […] No mAb staining was detected in parental HEK293 cells without ZnT8 over-expression. […]
A general note: Flow cytometry measures light scatter and fluorescence of single cells or particles in a stream.

The target in the next experiment is T2, human ZnT8-His (human, UniProt Q8IWU4-2 1-320, limits assumed).
T2 construct: Over-expressed in HEK293 cells, solubilized with DDM and immobilized on Ni-NTA plates (native or unfolded with 2% SDS), or SDS-denatured on immunoblots; also called human ZnT8 with C-terminal poly-histidine tag; not shown: C-terminal poly-histidine tag
T2 sequence (looked up): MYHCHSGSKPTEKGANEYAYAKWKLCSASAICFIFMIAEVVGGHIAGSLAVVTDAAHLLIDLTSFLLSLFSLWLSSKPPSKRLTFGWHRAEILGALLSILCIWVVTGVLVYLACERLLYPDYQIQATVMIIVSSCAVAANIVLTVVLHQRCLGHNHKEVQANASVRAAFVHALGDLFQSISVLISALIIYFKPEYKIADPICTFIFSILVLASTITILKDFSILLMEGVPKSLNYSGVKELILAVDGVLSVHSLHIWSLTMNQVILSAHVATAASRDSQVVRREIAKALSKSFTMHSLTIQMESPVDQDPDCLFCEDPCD
Description: ELISA titration on ZnT8-His immobilized on Ni-NTA plate; apparent binding affinity, one-component fit; DDM-solubilized human ZnT8 immobilized to Ni-NTA plate via His-tag; mAb titration. An excerpt: FIG. 7A-7D. mAb binding specificities (FIG. 7A) mAb binding to ZnT8-His immobilized to Ni-NTA plate. Bound mAb20 (red) or mAb39 (magenta) was detected by an HRP-conjugated secondary antibody. Solid lines are least-squares fits of binding datapoints to a one-component binding process. Error bars are standard errors (n=8). (FIG. 7B) SDS-denatured mouse ZnT8-His (labeled as M) and human ZnT8-His (labeled as H) on immunoblots were detected by mAb20 or mAb39 as indicated. […] (FIG. 7C) Detection of endogenous human ZnT8 in EndoC-βH cells by mAb20 or […] immunoblotting. An equal amount of EndoC-βH lysate (5 μg total protein) was loaded to each lane. (FIG. 7D) Immunoblotting of HEK lysates with or with over-expression of a ZnT homolog as indicated. An approximately equal amount of total lysate protein (5 μg) was located to each lane, probed by either mAb20, mAb39, or anti-FALG antibody as indicated. FIG. 8. HTRF response to human ZnT8, mouse ZnT8 and human ZnT3.
Binding specificities. […] Of note, the epitope-masking effect of ZnT8 immobilization weakened the apparent binding affinities of both mAbs as compared to the affinities determined by flow-cytometry, and such a weakening effect was more pronounced for mAb39, probably due to a closer proximity of the mAb39 epitope to the C-terminal His-tag. Next, we compared the immunoreactivities of mAbs to denatured ZnT8.

Residue numbers refer to the chain shown, from its start.

B1: mAb20 (antibody, V domains shown)
VH: QIQLVQSGPELKKPGETVKISCKASGYIFTNYPMHWVKQAPGKGLKWMGWINTYSGVPTHADDFKGRFAFSLETSANSAFLQINNLKNEDTATYFCTRSRITPTGGYAMDYWGQGTSVTVSS
VL: DVVMTQTPLSLPVSLGDQASISCRSSQSLVHSNGNTYLHWYLQKPGQSPNLLISKVSNRFSGVPERFSGSGSGTDFTLKISRVEAEDLGVYFCSQNTHVPWTFGGGTKLEIKR
notes: Mouse hybridoma mAb purified on protein A/G; In some assays it was labelled with Alexa Fluor 488 or terbium cryptate; also called monoclonal antibody mAb20; anti-ZnT8 mAb20
What is called EC50 (read off the curve) is the concentration that produces a half-maximal response. As for B1, in experiment [1], the “EC50 (read off the curve)” value was around 0.1 µg/mL. The Kd with human ZnT8-His was 2.5 nM.

B2: mAb39 (antibody, V domains shown)
VH: QVQLQQPGAELVKPGASVKLSCKASGYSFTTYWMHWVKQRPGQGLEWVGDINPRNGRTNYNEKSKSKATLTVDISSSTVYMQVSSLTSEDSAVYYCAIWSGAMDYWGPGTSVTVSS
VL: B1 VL with A19P, R24K, S32N, N50K, S54Y, E65D, N96T, W101P
notes: Mouse hybridoma mAb purified on protein A/G; In some assays it was labelled with Alexa Fluor 555 or d2; also called monoclonal antibody mAb39; anti-ZnT8 mAb39
Consider B2, for which the “EC50 (read off the curve)” value in experiment [1] is around 0.1 µg/mL. The Kd with human ZnT8-His was determined as 17.6 nM.
